Patent US20230392126A1, “TISSUE ORGANOIDS” (priority 2016, published 2023)

What was measured:
[1] = Extinction and ethanol-induced reinstatement of CPP; format: in vivo, mouse; details: 1 g/kg ethanol i.p., specificity control
Method: Extinction and reinstatement of CPP: Following CPP acquisition, mice underwent extinction, in which the procedure was identical to that in the test day. In each extinction day, mice were allowed to explore the entire chambers for 20 min and time spent in each area was recorded. Extinction was performed until the CPP decreased to a level that was not different from that of the pretest in consecutive two days. On the following day of the last extinction, mice underwent reinstatement procedures, in which mice that were trained for cocaine CPP received an i.p. injection of 15 mg/kg cocaine, and mice that were trained for ethanol CPP received an i.p. injection of 1 g/kg ethanol. Immediate after injection, mice were allowed to explore the entire chambers for 20 min and time spent in each area was recorded.
Specific methods: One group of GhBChE and one group of GWT mice (n=9 in each group) were trained for cocaine CPP 7 days after engraftment (FIG. 18A). Mice underwent pretest on Day 1, four days of cocaine conditioning day 2 to Day 5, and CPP test on Day 6. One group of GhBChE and one group of GWT mice (n=8 in each group) were trained for ethanol CPP 7 days after engraftment (FIG. 18B). Mice underwent pretest on Day 1, four ethanol conditioning day 2 to Day 5, and CPP test on Day 6. […]

[2] = tested on: human epidermal keratinocytes; test: Cell proliferation and differentiation of engineered human epidermal cells in vitro; format: cell-based
Method: Primary human neonatal epidermal keratinocytes were obtained from Thermo Fischer® (C0015C), and cultured with Epilife® medium (Thermo Fischer, M-EPICF-500) with manufacturer's recommended procedures. Calcium shift was performed to induce differentiation of primary keratinocytes by increasing the calcium concentration in culture media to 1.5 mM.
Propidium iodide (PI) staining followed by flow cytometry were used to determine the effect of cell cycle profiles. Mouse and human epidermal cells were cultured in two 6 cm cell culture dish for 24 hours, respectively. Cells were trypsinized, and 1×10^5 cells from each dish were collected, followed by one PBS wash. […] After staining, the cells were analyzed immediately using flow cytometer BD FACSCanto™ II (BD Biosciences, San Jose, CA) with an excitation wavelength at 488 nm and emission at 585 nm. DNA content and histograms of cell cycle distribution were analyzed using FlowJo™ software, version 10 (FLOWJO LLC, OR).
Western blotting was performed as described previously (Blanpain et al.). […] Visualization and quantification was carried out with the LI-COR Odyssey® scanner and software (LI-COR Biosciences).
Propidium iodide (PI) staining followed by flow cytometry were used to determine the effect of cell cycle profiles. […] DNA content and histograms of cell cycle distribution were analyzed using FlowJo™ software, version 10 (FLOWJO LLC, OR). […]

B1: hBChE: modified human butyrylcholinesterase (E30-6, SEQ ID NO: 41), cocaine hydrolase, expressed from engineered epidermal cells / skin grafts (protein)
chain: MHSKVTIICIRFLFWFLLLCMLIGKSHTEDDIIIATKNGKVRGMNLTVFGGTVTAFLGIPYAQPPLGRLRFKKPQSLTKWSDIWNATKYANSCCQNIDQSFPGFHGSEMWNPNTDLSEDCLYLNVWIPAPKPKNATVLIWIYGGGFQTGTSSLHVYDGKFLARVERVIVVSMNYRVGALGFLALPGNPEAPGNMGLFDQQLALQWVQKNIAAFGGNPKSVTLFGESSGAASVSLHLLSPGSHSLFTRAILQSGSANAPWAVTSLYEARNRTLNLAKLTGCSRENETEIIKCLRNKDPQEILLNEAFVVPYGTALGVNFGPTVDGDFLTDMPDILLELGQFKKTQILVGVNKDEGTWFLVGGAPGFSKDNNSIITRKEFQEGLKIFFPGVSEFGKESILFHYTDWVDDQRPENYREALGDVVGDYNFICPALEFTKKFSEWGNNAFFYYFEHRSSKLPWPEWMGVMHGYEIEFVFGLPLERRDNYTKAEEILSRSIVKRWANFAKYGNPNETQNNSTSWPVFKSTEQKYLTLNTESTRIMTKLRAQQCRFWTSFFPKVLEMTGNIDEAEWEWKAGFHRWNNYMMDWKNQFNDYTSKKESCVGL
modifications: Human mutant BChE
ethanol-induced reinstatement of CPP [1]: similarly reinstated in both GhBChE and GWT mice | effect of expression on cell proliferation / differentiation in vitro [2]: did not significantly change cell proliferation
